Experimental data published in patent US11059903B2, “Anti-PSMA antibodies, uses thereof and conjugates thereof” (Polytherics Limited, priority 2016, dated 2021).

Experiment: Heat stress test, aggregation analysed by SEC
Format: physicochemical
Details: for Ab in aggregated form (%) / Ab in native conformation (%): post stress test: 0.5 mg/mL in PBS, 75° C. for 30 min, SEC % area
Procedure: Antibody samples (0.5 mg/mL in PBS) were incubated at 75° C. for 30 min followed by incubation in an ice-bath for 5 min prior to being analysed for their extent of aggregation. Analysis of antibody solutions was carried out by Size Exclusion Chromatography (SEC) and by turbidity measurements.
SEC was performed using a TOSOH Bioscience TSK gel Super SW 3000 column. UV absorbance at 280 nm was monitored during an isocratic elution with a 0.2 M Potassium phosphate buffer, pH 6.8 (0.2 M potassium chloride and 15% isopropanol). The elution times and number of peaks indicate whether the sample contains aggregated, degraded or native antibody. The % area under the curve (Abs280) was used to determine the quantity of each species present in the SEC analysis.

B1: AB-03: Humanised anti-PSMA antibody, heavy chain SEQ ID No 7, light chain SEQ ID No 8 (antibody, V domains shown)
VH: EVQLVQSGAEVKKPGASVKVSCKASGYTFTEYTIHWVRQAPGKGLEWIGNINPNNGGTTYNQKFEDRVTITVDKSTSTAYMELSSLRSEDTAVYYCAGGWTFDYWGQGTTVTVSS
VL: DIQMTQSPSTLSASVGDRVTITCKASQDVGTAVDWYQQKPGQAPKLLIYWASTRHTGVPDRFSGSGSGTDFTLTISRLQPEDFAVYYCQQFTRYPLTFGQGTKVDIK
Ab in aggregated form (%): 64% | Ab in native conformation (%): 36%

B2: AB-04: Humanised anti-PSMA antibody, heavy chain SEQ ID No 9, light chain SEQ ID No 8 (antibody, V domains shown)
VH: EVQLVQSGAEVKKPGASVKVSCKASGYTFTEYTIHWVRQAPGKGLEWIGNINPNNGGTTYNQKFEDRVTITVDKSTSTAYMELSSLRSEDTAVYYCAGAWTMDYWGQGTTVTVSS
VL: DIQMTQSPSTLSASVGDRVTITCKASQDVGTAVDWYQQKPGQAPKLLIYWASTRHTGVPDRFSGSGSGTDFTLTISRLQPEDFAVYYCQQFTRYPLTFGQGTKVDIK
Ab in aggregated form (%): 73% | Ab in native conformation (%): 27%

B3: AB-05: Humanised anti-PSMA antibody, heavy chain SEQ ID No 5, light chain SEQ ID No 10 (antibody, V domains shown)
VH: EVQLVQSGAEVKKPGASVKVSCKASGYTFTEYTIHWVRQAPGKGLEWIGNINPNNGGTTYNQKFEDRVTITVDKSTSTAYMELSSLRSEDTAVYYCAAYWLFDYWGQGTTVTVSS
VL: DIQMTQSPSTLSASVGDRVTITCKASQDVGTAVDWYQQKPGQAPKLLIYWASTRHTGVPDRFSGSGSGTDFTLTISRLQPEDFAVYYCQQYNAYSLTFGQGTKVDIK
Ab in aggregated form (%): 98% | Ab in native conformation (%): 2%

B4: AB-09: Prior art anti-PSMA antibody, heavy chain SEQ ID No 15, light chain SEQ ID No 16 (antibody, V domains shown)
VH: MELGLRWVLLVALLRGVQCQVQLVESGGGVVQPGRSLRLSCAASGFTFSNYVMHWVRQAPGKGLEWVAIIWYDGSNKYYADSVKGRFTISRDNSKNTLYLQMNSLRAEDTAVYYCAGGYNWNYEYHYYGMDVWGQGTTVTVSS
VL: MRVPAQLLGLLLLCFPGARCDIQMTQSPSSLSASVGDRVTITCRASQGITNYLAWFQQKPGKAPKSLIYAASSLQSGVPSKFSGSGSGTDFSLTISSLQPEDFATYYCQQYNSYPITFGQGTRLEIK
Stability compared with AB-02 to AB-06 antibodies (heat stress test, in words): less stable | Ab in aggregated form (%): 100% | Ab in native conformation (%): 0%
